Results published in US10047402B2, “RASAL1 is a major tumor suppressor gene in thyroid cancer” (THE JOHNS HOPKINS UNIVERSITY, priority 2013, dated 2018).
Entries after “also recorded” stand apart in the source; their conditions may differ.

Key:
[1] = system: thyroid cancer cell lines; assay: Demethylation (MSP) and re-expression (RT-PCR) of RASAL1 after 5-Aza-dC treatment; assay type: cell-based, human; details: for demethylation of RASAL1 (MSP analysis): thyroid cancer cell lines, 5 μM 5-Aza-dC for 24 hours
Description: FIG. 2. Hypermethylation of RASAL1 and its re-expression induced by demethylation in thyroid cancer cells. […] After cells were treated with 5 μM 5-Aza-dC for 24 hours, RNA and genomic DNA were extracted and used for reverse-transcription polymerase chain reaction (RT-PCR) and MSP analysis, respectively. C) RT-PCR analysis of RASAL1 expression in thyroid cancer cell lines treated with or without demethylating agent 5-Aza-dC. D) MSP analysis of RASAL1 in matched normal and cancerous thyroid tissues. Six matched sample pairs are presented that had different methylation patterns between normal and matched tumor tissues. E) RASAL1 methylation levels represented by the indicated allelic methylation percentages (x-axis) and their frequencies (y-axis) in different types of thyroid cancers. ATC=anaplastic thyroid cancer; FTC=follicular thyroid cancer; PTC=papillary thyroid cancer.
DNA bisulfate treatment was performed as previously described (29). See Table 3 for MSP primer sequences. The relative level of methylation was normalized using the ratio obtained from the values of the gene of interest over the values of the internal reference gene (β-actin). The relative methylation level was calculated by the formula [M/(M+U)]×100%, in which M and U represent the density of the methylation and unmethylation band, respectively. Results represent the percentage of allelic methylation of the tumor.
RNA extraction and semi-quantitative RT-PCR were performed as previously described (Liu et al., 13(4) CLIN. CANCER RES. 1341-49 (2007)). Normal human thyroid RNA samples (Stratagene, La Jolla, Calif.) were used as the control. The RT-PCR primers are presented Table 3.

[2] = system: MAPK and PI3K signaling pathways (pERK, pAkt) in thyroid cancer cell lines; assay: Western blotting of ERK and Akt phosphorylation after RASAL1 expression; assay type: cell-based, human; details: for pERK and pAkt levels: acute expression; for pERK and pAKT: stable expression
[3] = system: thyroid cancer cell lines; assay: Colony formation in monolayer culture after transient RASAL1 transfection; assay type: cell-based, human; details: transient reintroduction, compared with control vector; six of seven thyroid cancer cell lines tested
C643 cells = assay: Anchorage independent colony formation, stable transfection; assay type: cell-based, human; details: C643, stably transfected; n=3; control vector 92.67±18.15; P=0.03
KAT18 cells = assay: as above; assay type: cell-based, human; details: KAT18, stably transfected; n=3; control vector 81.67±16.29; P=0.05
WRO cells = assay: Colony formation in soft agar, stable transfection; assay type: cell-based, human
Text: FIG. 5. Examination of the effects of reintroduction of RASAL1 on RAS signaling and growth of thyroid cancer cells. A) A representative result of Western blotting analysis of RASAL1 expression and phosphorylation of ERK and Akt as well as other related proteins as indicated in various thyroid cancer cell lines that harbor different genetic alterations. B) A representative result of colony formation of thyroid cancer cells in monolayer culture after transfection of plasmids with or without insertion of RASAL1 cDNA followed by drug selection for 2 weeks. Cell colonies were stained with crystal violet. Scale bar=1 cm. C) Western blotting analysis of RASAL1 expression and phosphorylation of ERK and Akt and related proteins as indicated in three selected thyroid cancer cell lines stably transfected with RASAL1. D) Bar graph presentation of the colony numbers (mean±standard deviation) from three experiments for cells stably transfected with empty vectors or RASAL1 as in (C). Only cell colonies containing more than 50 cells were included.
(§1) FIG. 6. […] Scale bar=100 μm. […] Scale bar=100 μm.
Colony formation assays were performed as described previously (Liu et al., 92(6) J. CLIN. ENDOCRINOL. METAB. 2264-71 (2007)). […] Surviving colonies were counted after staining with crystal violet. […] After 3-4 weeks of culture, colonies were photographed and colony number was counted under a microscope.

K1 cells = assay: Colony formation with doxycycline-inducible RASAL1 expression; assay type: cell-based, human; details: Dox-induced expression, control (no Dox) 86.00±8.54, P=0.006
Description: as §1
Colony formation assays were performed as described previously (Liu et al., 92(6) J. CLIN. ENDOCRINOL. METAB. 2264-71 (2007)). For colony formation in monolayer culture, transfected cells (1×10^5 cells/well) were inoculated into a […], and 24-h later cells were selected with blasticidin (2 μg/mL) for 2 weeks. Surviving colonies were counted after staining with crystal violet. For colony formation in soft agar, cells (5×10^3 cells/well) were plated in RPMI 1640 containing 10% FBS and 0.33% agar in 12-well plates. After 3-4 weeks of culture, colonies were photographed and colony number was counted under a microscope.
RASAL1 cDNA, which was amplified from normal thyroid (Stratagene, La Jolla, Calif.) and tagged with c-myc epitope, was inserted into a modified lenti-virus vector that was derived from plenti6/V5-DEST (Invitrogen, Grand Island, N.Y.). The virus packaging and cell infection were performed as described previously (Liu et al., 18 CANCER RES. 7311-19 (2009)). To construct the plasmid for doxycycline-inducible expression of RASAL1, the CMV promoter in the modified plenti6/V5-DEST plasmid was replaced with the Xho I-EcoR V fragment of plasmid pUHG10-3 (Gossen et al., 89(12) PROC. NATL. ACAD. SCI. USA 5547-51 (1992)), which contained hCMV minimal promoter with heptamerized upstream tet-operators. […]

[4] = system: RAS (RAS-GTP) in WRO cells; assay: RAS pull-down (RAS activation) assay with ATP stimulation; assay type: cell-based, human; details: WRO cells stably transfected; ATP treatment
Description: as §1
The protocol for cell treatment was as described previously (Walker et al., 23(8) EMBO J. 1749-60 (2004)). Briefly, cells were serum starved for 2 h in serum-free medium at 24 h post-transfection of wild-type H-RAS. Cells were then treated with 50 μM ATP for 1 min. A RAS activation assay kit (Cell Biolabs, San Diego, Calif.) was used to assess RAS activity. After treatment, cells were washed twice with ice-cold PBS and then lysed in 1 mL of assay lysis buffer. After centrifugation at 14,000×g for 10 min at 4° C., cell lysates were incubated at 4° C. for 1 h with 40 μL of the RAF1 RAS-binding domain-agarose beads. The beads were pelleted and washed three times with assay lysis buffer, and then resuspended in 2× reducing SDS-PAGE sample buffer. The quantities of activated RAS (RAS-GTP) were analyzed by Western blotting using anti-RAS monoclonal antibody.

[5] = system: K1 cell-derived xenograft tumors; assay: Xenograft tumor formation in nude mice
Description: The procedures for the construction of doxycycline (Dox)-inducible expression device for RASAL1 and transfection of K1 cells are as described in the Materials and Methods section below. […] Each time point represents the average±standard deviation of the values obtained from four mice in each group. Two-tailed paired Student t test was used to compare tumor sizes at week 5. H) Photographs of the tumors that were surgically removed from mice in each group after they were killed at the end of 5 weeks from the cell inoculation. I) Weight of individual tumors surgically removed from the animals in each group corresponding to (H). The average weight of the tumors from each group is indicated with a short horizontal bar.
The animals' care was in accord with the guidelines of Johns Hopkins Medical Institutions. K1 cells stably transfected with doxcycycline-inducible wild-type RASAL1 or RASAL1 mutants constructed as described above were injected (1×10^7 cells/mouse) subcutaneously into flanks of female nude mice at the age of 4 weeks (Harlan Sprague Dawley, Indianapolis, Ind.). Mice were fed vehicle or 0.2 mg/mL doxycycline, which was stored in a 0.5% sucrose solution in light-proof bottles, beginning when the tumor grew to a size of 2 mm at 1.5 weeks after the inoculation of cells. Tumor size was measured, and volume was calculated using the formula (length×width2)/2. After 5 weeks, mice were sacrificed, and tumors were surgically removed, photographed, and weighed.

## Nc1ncn([C@H]2C[C@H](O)[C@@H](CO)O2)c(=O)n1 [5-Aza, 5-aza-2-deoxycytidine]
[1]; in six of the eight thyroid cancer cell lines tested, 5 μM for 24 hours
  RASAL1 expression (RT-PCR): restored its expression
[1]
  demethylation of RASAL1 (MSP analysis): induced demethylation of RASAL1
[1]; listed as 5-Aza-dC
  demethylation of RASAL1 (MSP analysis): Partial demethylation

B1: RASAL1: RASAL1 cDNA from normal thyroid, c-myc tagged, in lenti-virus vector, expressed in thyroid cancer cells; RasGAP tumor suppressor protein (protein, UniProt O95294 1-804, looked up)
RasGAP-activating-like …: MAKSSSLNVRVVEGRALPAKDVSGSSDPYCLVKVDDEVVARTATVWRSLGPFWGEEYTVHLPLDFHQLAFYVLDEDTVGHDDIIGKISLSREAITADPRGIDSWINLSRVDPDAEVQGEICLSVQMLEDGQGRCLRCHVLQARDLAPRDISGTSDPFARVFWGSQSLETSTIKKTRFPHWDEVLELREMPGAPSPLRVELWDWDMVGKNDFLGMVEFSPKTLQQKPPKGWFRLLPFPRAEEDSGGNLGALRVKVRLIEDRVLPSQCYQPLMELLMESVQGPAEEDTASPLALLEELTLGDCRQDLATKLVKLFLGRGLAGRFLDYLTRREVARTMDPNTLFRSNSLASKSMEQFMKLVGMPYLHEVLKPVISRVFEEKKYMELDPCKMDLGRTRRISFKGALSEEQMRETSLGLLTGYLGPIVDAIVGSVGRCPPAMRLAFKQLHRRVEERFPQAEHQDVKYLAISGFLFLRFFAPAILTPKLFDLRDQHADPQTSRSLLLLAKAVQSIGNLGQQLGQGKELWMAPLHPFLLQCVSRVRDFLDRLVDVDGDEAGVPARALFPPSAIVREGYLLKRKEEPAGLATRFAFKKRYVWLSGETLSFSKSPEWQMCHSIPVSHIRAVERVDEGAFQLPHVMQVVTQDGTGALHTTYLQCKNVNELNQWLSALRKASAPNPNKLAACHPGAFRSARWTCCLQAERSAAGCSRTHSAVTLGDWSDPLDPDAEAQTVYRQLLLGRDQLRLKLLEDSNMDTTLEADTGACPEVLARQRAATARLLEVLADLDRAHEEFQQQERGKAALGPLGP
modifications: c-myc tag
notes: RASAL1 cDNA from normal thyroid, c-myc tagged, in lenti-virus vector, expressed in thyroid cancer cells; RasGAP tumor suppressor protein
[2]; BCPAP cells (BRAF mutation)
  pERK and pAkt levels: only reduced pAKT but not pERK
[2]; C643 cells (RAS mutation)
  pERK and pAkt levels: No effect was observed; also recorded: no effect on pERK and pAKT
[2]; FTC-133 cells (PTEN mutation)
  pERK and pAkt levels: reduced pERK but not pAKT
[2]; Hth7 cells (RAS mutation)
  pERK and pAkt levels: No effect was observed
[2]; KAT18 cells (wild-type RAS, BRAF, PIK3CA, PTEN)
  pERK and pAkt levels: decreased both pERK and pAkt levels
[2]; KAT18 cells
  pERK and pAKT: inhibition of pERK and pAKT was observed
[2]; SW1736 cells (BRAF mutation)
  pERK and pAkt levels: No effect was observed
[2]; TPC1 cells (RET-PTC1 rearrangement)
  pERK and pAkt levels: no effect
[2]; WRO cells (wild-type RAS, BRAF, PIK3CA, PTEN)
  pERK and pAkt levels: decreased both pERK and pAkt levels
[2]; WRO cells
  pERK and pAKT: inhibition of pERK and pAKT was observed
[3]
  cell colony growth in monolayer culture: dramatically inhibited cell colony growth
C643 cells
  colony number: 55.33±9.71
KAT18 cells
  colony number: 54.00±6.56
WRO cells; WRO cell pools, wild-type vs mutants experiment, vector 52.00±9.54, P=0.009
  colony number: 24.00±7.81
WRO cells; WRO, stably transfected, n=3, control vector 48.00±13.45, P=0.03
  colony number: 21.67±6.35
K1 cells
  colony number: 40.33±6.03
[4]
  effect on activation of RAS and increase in pAKT and pERK stimulated by ATP: suppressed the activation of RAS and the increase in pAKT and pERK
[5]; doxycycline-induced expression in K1 xenografts
  effect on tumor growth: statistically significant inhibitory effect
[5]; doxycycline-induced expression, after 5 weeks, without induction 1.01±0.54, P=0.047
  tumor weight: 0.66 ± 0.53 g
[5]; doxycycline-induced expression, week 5, without induction 0.94±0.52, P=0.02
  tumor volume: 0.49±0.4 cm3
